Like-named read-outs stand apart in the source and are kept apart here.
Legend:
[1] = target: commercially available anti-Stat3 antibody (Abcam, Cambridge, Mass.); experiment: ELISA, antibody coated at 1 µg/mL, secondary antibody 1:5,000, Experiment 3
[2] = target: human STAT3 (human, UniProt P40763 1-770, limits assumed); experiment: SPR, Biacore 3000
[3] = target: human STAT3 (Biacore) (human, UniProt P40763 1-770, limits assumed); experiment: SPR
[4] = target: T1, active human TNF-α full length protein (human, UniProt P01375 77-233); experiment: ELISA, wells coated with 0.5 µg/mL TNF-α, sdAb at 1 µg/mL
T1 sequence (P01375 77-233 limits assumed): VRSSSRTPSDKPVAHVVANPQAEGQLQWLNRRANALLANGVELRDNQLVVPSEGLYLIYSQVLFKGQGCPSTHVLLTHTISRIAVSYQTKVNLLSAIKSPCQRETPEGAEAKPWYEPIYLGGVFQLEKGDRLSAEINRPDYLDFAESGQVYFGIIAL

[5] = target: T1, active human TNF-α full length protein
[6] = target: T1, active human TNF-α full length protein; remark: listed apart in the source
[7] = target: T1, active human TNF-α full length protein; remark: listed apart in the source
[8] = target: T1, active human TNF-α full length protein; remark: listed apart in the source
[9] = target: T1, active human TNF-α full length protein; remark: listed apart in the source
[10] = target: T1, active human TNF-α full length protein; remark: listed apart in the source
[11] = target: T1, active human TNF-α full length protein; remark: listed apart in the source
[12] = target: T1, active human TNF-α full length protein; remark: listed apart in the source
[13] = target: T1, active human TNF-α full length protein; remark: listed apart in the source
[14] = target: T1, active human TNF-α full length protein; remark: listed apart in the source
[15] = target: T1, active human TNF-α full length protein; remark: listed apart in the source
[16] = target: T1, active human TNF-α full length protein; remark: listed apart in the source
[17] = target: human KRAS (normal human KRAS, full protein) (human, UniProt P01116-2 1-188, limits assumed); experiment: SPR, Biacore 3000
[18] = target: endogenous STAT3 of the murine 4T1 cell line (murine, UniProt P42227 2-770); experiment: immunoprecipitation from 4T1 lysate, Western blot
endogenous STAT3 of the murine 4T1 cell line, sequence (P42227 2-770 limits assumed): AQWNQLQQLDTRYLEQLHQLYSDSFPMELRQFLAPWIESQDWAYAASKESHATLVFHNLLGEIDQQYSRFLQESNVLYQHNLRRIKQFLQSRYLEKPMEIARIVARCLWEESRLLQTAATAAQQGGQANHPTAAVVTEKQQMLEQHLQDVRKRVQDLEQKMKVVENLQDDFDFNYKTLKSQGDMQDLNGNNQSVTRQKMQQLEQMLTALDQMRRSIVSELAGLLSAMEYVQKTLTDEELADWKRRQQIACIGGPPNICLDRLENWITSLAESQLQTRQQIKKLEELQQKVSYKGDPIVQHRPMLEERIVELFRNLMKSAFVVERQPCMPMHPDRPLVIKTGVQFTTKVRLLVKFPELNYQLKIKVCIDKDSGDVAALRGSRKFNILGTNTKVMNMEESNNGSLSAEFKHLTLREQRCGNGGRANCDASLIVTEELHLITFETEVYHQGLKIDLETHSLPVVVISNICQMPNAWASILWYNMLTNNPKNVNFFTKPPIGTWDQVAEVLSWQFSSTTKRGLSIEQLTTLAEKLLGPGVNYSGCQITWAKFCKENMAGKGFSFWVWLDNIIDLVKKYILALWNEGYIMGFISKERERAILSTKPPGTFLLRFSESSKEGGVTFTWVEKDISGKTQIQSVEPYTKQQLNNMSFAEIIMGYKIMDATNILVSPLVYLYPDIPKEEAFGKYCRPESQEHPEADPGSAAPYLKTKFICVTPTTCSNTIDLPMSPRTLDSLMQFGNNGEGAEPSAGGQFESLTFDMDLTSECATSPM

Molecule: his-probe (H-3) biotin labeled antibody
- OD450 [1]: 0.018 OD450

B1: anti-KRAS (G12D) (SEQ ID NO:2) sdAb (VHH)
VHH: EVQLVESGGGSVQTGGSLRLSCAVSGNIGSSYCMGWFRQAPGKKREAVARIVRDGATGYADYVKGRFTISRDSAKNTLYLQMNRLIPEDTAIYYCAADLPPGCLTQAIWNFGYRGQGTLVTVSS
- binding result [2]: no binding (tested: 0-200 nM)

B2: anti-KRAS (G12D) (SEQ ID NO:2) sdAb (VHH)
VHH: B1 VHH
- binding result [3]: no binding

B3: anti-TNF-alpha VHH69 (SEQ ID NO:46) sdAb (VHH)
VHH: EVQLVESGGGSVLAGGSLRLSCVASGFTSRYNYMAWFRQAPGKEREGVATIGTASGSADYYGSVKDRFTISQDNAKNTVYLQMNSLKPEDTAMYYCAARTYGTISLTPSDYRYWGQGTLVTVSS
- OD450 [4]: 1.95 OD450
- Signal/Noise Ratio [5]: 8
- Signal/Noise Ratio [6]: 7.5
- Signal/Noise Ratio [7]: 3.2
- Signal/Noise Ratio [8]: 2.4
- Signal/Noise Ratio [9]: 5.9
- Signal/Noise Ratio [10]: 3.7
- Signal/Noise Ratio [11]: 1.6
- Signal/Noise Ratio [12]: 1.6
- Signal/Noise Ratio [13]: 2.1
- Signal/Noise Ratio [14]: 1.9
- Signal/Noise Ratio [15]: 1.5
- Signal/Noise Ratio [16]: 1.3

B4: anti-STAT3 VHH13 (SEQ ID NO:3) sdAb (VHH)
VHH: HVQLVESGGGSVQAGGSLRLSCAASGANGGRSCMGWFRQVPGKEREGVSGISTGGLITYYADSVKGRFTISQDNTKNTLYLQMNSLKPEDTAMYYCATSRFDCYRGSWFNRYMYNSWGQGTQVTVSS
- Kd [17]: 126 nM

B5: anti-STAT3 VHH13 (SEQ ID NO:3) sdAb (VHH)
VHH: B4 VHH
- binding result [18]: binds

From patent publication US20170327598A1 (published 2017)
